In PMC1459065:
Like-named read-outs stand apart in the source and are kept apart here.

B1: CCA-repeating 48mer (ssDNA)
DNA: CCACCACCACCACCACCACCACCACCACCACCACCACCACCACCACCA
B2: TGG-repeating 48mer (ssDNA)
DNA: TGGTGGTGGTGGTGGTGGTGGTGGTGGTGGTGGTGGTGGTGGTGGTGG

Key:
RecA [1] = target: T1, RecA (Escherichia coli, UniProt P0A7G6 1-353); assay: double filter binding
RecA [2] = target: T1, RecA; assay: double filter binding; remark: listed apart in the source

T1 sequence (P0A7G6 whole entry): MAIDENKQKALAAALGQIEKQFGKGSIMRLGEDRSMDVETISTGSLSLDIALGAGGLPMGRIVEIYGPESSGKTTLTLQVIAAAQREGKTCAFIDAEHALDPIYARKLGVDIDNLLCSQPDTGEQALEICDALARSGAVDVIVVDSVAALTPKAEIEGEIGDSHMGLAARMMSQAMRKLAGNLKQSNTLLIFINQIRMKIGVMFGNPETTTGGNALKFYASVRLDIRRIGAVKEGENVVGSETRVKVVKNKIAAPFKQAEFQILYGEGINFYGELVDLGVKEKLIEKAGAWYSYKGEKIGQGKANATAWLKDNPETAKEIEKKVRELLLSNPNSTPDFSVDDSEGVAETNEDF

Row | Binder | Kd (RecA [1]) | Kd (RecA [2])
1 | B1 | 246 nM | –
2 | B2 | – | 91 nM
